Measurements: a protein production outcome set (Wang et al. 2014)

Assay: label from the status in PepcDB records
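Also: failed if final PepcDB status was selected cloned or expressed and not failed if soluble or beyond.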

| Sequence | protein production |
| --- | --- |
| MRLKDLGERALLARLAPLGYPPEAPLPPGDDAGGVWAEGRAWLLKTDGFLYREVALKGMGPFEVGFRGVAATASDLLAKMGRPLGFTLGLFLPEDLEEGFVLELVRGAAEAAKRLGAFLLGGDTNRGVEVALTVSGYALAEAPLPRKALPGDLLYLAGDRWGRTGAAIRAHYEGRSLEGFPKIREAAFYPLPRLELLALSGLLRGSLDSSDGLAETLWQLADLGVGVEVEALPLYPDVLAFAGSEEAALELVLYGGEEFEAVLVVPQEGAAAVEARAKAKGLPLFRAGRVVAGEGVYLRGAPLPRKGYAHF | not failed |
| MRLRLLSLPFILSLCAPLLPLNTLAAERIVTIGGDVTEIAYALGAGDEIVARDSTSQQPQAAQKLPDVGYMRTLNAEGILAMKPTMLLVSELAQPSLVLTQIASSGVNVVTVPGQTTPESVAMKINAVATALHQTEKGQKLIEDYQQRLAAVNKTPLPVKVLFVMSHGGLTPMAAGQNTAADAMIRAAGGSNAMQGFSRYRPLSQEGVIASAPDLLLITTDGVKALGSSENIWKLPGMALTPAGKHKRLLVVDDMALLGFGLETPQVLAQLREKMEQMQ | failed |
| MRLSRGVFLLLLLLALASPLMIVGCGGPSFLPAASLRDPSVDMAWPPAPNPARIRFLREISGPEQVKAEPGAIARFLEFVTGEQFKHVPFVTPYGVVSDGGTLLFVSDSSSGVVHRIDLARQKVSYIVRAGDEFLSSPVGLALSPSGDLYVSDSVNAKVYVFSRDGEFLRVLADGQVDFKRPAGLAVNSKGVLFVVDVLAHKLKVFNVSGRFLGDFPPDDIGGKLNLPSHVAVDKDDKVYVTDALNFTVKVYDSARRYLRSIGEIGDAPGSFARPRGVAVDSDLNVYVIDAAFDNFQIFNQEGQLLLFVGKPGKKSGEFYMPSGIHIDRNDRIFISDSYNRRVQVFEYLKEENR | failed |
| MRMLKTGLLNFISVLVKVITGLFLNKIMALYVGPAGYALVSQFQNGINFITTFASGAINTGVTKYTAEYANDKGKTSDLFKCITLLAITCCSFFSLTIIVFSEYFSLKLLGTINYSGVIKWFAATLFLFVANSILVSIINGLKEFKLYVLINIFGSLFSLLFSGILIYFFNLKGALIAFATNQSIVFFMTFYLIISKKMVSLKSFIGMPSDFYFIKKLIQYALMAIVSAFCVIYMQIIIRTYIANHFGWVQAGIWDGVWRISSLYLMLVTVPLGVYYLPRLAELHTKSLLLREIKQGYLFLLPIIIISAIIIYYLRYFIIELLFSKSFVSMGDIIGWQLLGDIFKIGSWLLSYIMLSKALTKTYIITEITTALLFLGGVHYLSPLYGLKGVTLAYCITYFCYWIMMIVVIISYFKGNFRNE | failed |
| MRMPDRTDVCVLLPTLNESETIGDVVGGFYDHGFEHVLVVDGDSTDGTRAIAREHGARVITQSGSGKGQAVREGVEQIDQPYVLMADGDGTYRPEDADKMLTPLFAGRAEHVIGDRFADMEAGAMTRLNAVGNRLINRLFATIHGRDLQDILSGYRAFTTQSFERSKLSADGFGIETELAVECVRRGVSTAVVPIRYEARPGGSETNLHPLKDGGRILLTLYRLARMNNPIFYFGSVAAVGTAGGVALGAFVGYRYLTAGVSHEVLALLAAFLVLLSVQLLMFGVLSDIIVSIHREQTRRLDDIADQLEEQNDE | failed |
| MRMRYQGRLSDWNDHKGFGFVTPHGGGDRAFVHISAFAQQTRRPRDGEIITYAIERDAHKRLNATQVRWADRTTAARTEQRRSGLPRKTLAAVSMLALAAATLMHVLPVIVPLWYAAASLVTLLIYAMDKSAAQRNQWRTPESSLHLLALIGGWPGALLAQEIHRHKCSKAAFQLTFWLTVALNVSALVLAVTETDLMATLPAVFD | failed |
| MRMTLRQLRIFNEVCDLRSYSRAAEEMSLTQPAVSLQVRQLEELIGQPLFEYVGKKLYMTEAAEALQLASRDIFGRLESLDMQLSDMQGSLQGQLKLAVESSCKYFIPHLFAAFKRQHPEVSLSLMVVNRAQIIRRLSDNRDDLVVMSAVPLDMGLEFLPFLNNPIVAVAPPDHPLSSRETLSLKDLEPWPLLTRETGSGTRRACEEYFKEKRVHFTQTLEVSSSEAQRECVVAGLGLAMLTRHAVCQELATGTLVELPVAELPLYRSWCVVQARDKRLSPVAHAFLAFIRTERAQISQLVERFDGRPQAV | failed |
| MRNDTMLNDTPFQDDDSRWQAVVTRNKAADSCFIYAVKTTSIYCAPSCASRQPRRENVVFFATADEAQAAGFRPCKRCRQGMLSRQEQQAQQIARACRMIEQSDRPPTLAVLAQAVGMSAFHFHRVFKTTTGLTPKQYASAYRHRQLREHLADNGEVTAAIVAAGYDASGRFYAEAGTHLGMTPTAFQNRGKGMTIHFAIGRCSLGDVLVAESEKGICAILLGDDPEPLLNTLQEMFAHAHLVGGDAAFEQRMSQVVGFVDDPSIGLTLPLDIRGTAFQQRIWQALRAIPVGETLSYREVAERIGSPAAVRAVAGACAANRLAVAIPCHRVVRHDGALSGYRWGVERKRALLEKEQVEKKQIVHQPEESPP | failed |
| MRNFFKKMVVLSVGCLTLPLWAQPHREGVQQKLQSLSVEQKIDLLCARYPGVPQEGLAKYDWWSECLHGVARAGKATVFPKPIGMGSTWDAELIHRIGIAIGDEARAKHHQDVREHGYSDRHYGLTFFSPTLNIARDPRWGRTTECFSEDPLLTSDMGVSFIKGMQGDDPYYLKTVATAKHFVANNEENRRLGGSAIVDEVSLREYYFPAFRDAVVRGYVKSIMGAYNALNGIPCCANSMLLTDVLRKEWGFEGVVISDGSAIDKLYTHHKYVPNLEEGAALALRAGCDMSLRDEYRPGLKKAYHKGLITEHDLNVAVARVLDLRARLGLDKGTDQGNPYKNTPYSVVECERHQQLALEAAEKSMILLKNEGVLPLKPDASKRKLNIALIGDAFKSVYYGDYSGMPEYNRTLLEAFTHDAGRLANLTWMGERSQEVLIPSHLLTQTADQAYDGILGFTARYYEGTKVGKEAALTRQDLTLDFKLAEDAALKQKEVRAASWTSTLKAPQSGRYMFYLEASGRGKLFINGKQMLSKYNGHRFKTSCEVVLKEGEEYKLKVDCEELNTQMPIRLTWTPPFKGTDDTPAKLAKRSDVAILFVRDDNSSEGRDRKNLNLSDAHIELIKEVCAANPKTILLLGGGSTLALKDIIEGPAALLNVWIAGQGEAQAISNILLGKTNPSGKTAVTFCADESELPALDDYDITHGRSYQYFKGKELFPFGFGLSYTNYQYGKPKMKHRKLQQGDKVEVSAEIRNTGKYAGEEVVQCYLSSPTWQKQGLKQKLVGYQRVSLKPGQAKTVKFCIQEEQLKRWNKDKDEWGLNGNQYNLSVVPCSNQQNAVSFTYR | failed |
| MRNKLLFLALPLLFGLQASAQHTQAFQDTTLTDEQRVEHLLSILTLDEKINLLSTDLGVPRLNIPRCGHYEGLHGLTLGGPAMWGGRQRTEDGKVVPTDCPTTIFPQSYGLGSTWDTDLVQKVAEQAAEEARYYMQTTGNKRHALVMRAPNADLARDPRWGRTEESFGEDAFLTAQLTIASVRGLQGNHPRYWKTASLMKHFLANSNEDGRDSTSSDFDTRLFHEYYAYPFYKGITEGGSRAFMAAYNSWNGIPMSIHPCLEEITRKQWGNNGIICTDGGALKLLIEAHKSFPSFAEGAAAVVKATTGQFLDAYVPYVKEALEKGLLTEVDIDKAIRGNIFVALKLGLLDGDNSRNPYLSIGKNSTETPPFMTAEARRLAREVTAKSVVLLKNKKLLPLDAGKLRKIAVIGPYSDKIVQDWYSGTPPYETTILSGIRNAVKEGTEIIHAEDNRMGQAEKAAAAADVAIVCVGNHPYGTRADWKFSPVPSDGREAVDRKSLMLPDEDLVKLVLKANPNTILVLVSSFPYTINWSQEHVPAIVHITHCSQEQGNGLADVLFGKVNPAGRTVQTWVKDITDLPDIMDYDIRNGRTYMYHQGPVLYPFGYGLSYSDFTYEKIESVKQDKKNIRVTVSVKNTSGRDGEEVVQLYASYPDSKVERPSKQLRAFRRIPIKAGETRKVTLTVPKEELGYWNEGKQMFVVEPGTVKLLIGASSEDIRLEGKIRL | failed |
| MRNLIISAALVAASLFGMSAQAAEPIESGKQYVELTSAVPVAVPGKIEVIELFWYGCPHCYAFEPTINPWVEKLPSDVNFVRIPAMFGGPWDAHGQLFITLDTMGVEHKVHAAVFEAIQKGGKRLTDKNDMADFVATQGVNKDDFLKTFDSFAVKGKIAQYKELAKKYEVTGVPTMIVNGKYRFDLGSAGGPEKTLQVADQLIDKERAAAKAAK | failed |
| MRNSCYTSSYRQPVSLVVEWVLIGGLAMQDKLHEIRVFENFQEELFETGHVIVTTEVVEKSLNYFGNAHGGYLFTLCDQVAGLVALSTGDYAVTLQSNINYLKAGHLSDQLKIEGLCVHNGKTTKLVEVLITNQEEKILTRATFTMYVTGSISE | failed |
| MRPAAARVLLGAFAFAVVADLASQALGSDTGHLLAKPLLMPLLAAYAAVRGGPRLLVVALLLGWAGDVLLLSDADPAFLAGMSSFAAGHVCYLVLFARHGRTRARGALLAGGYGLVLVTTVALLWPGLPAGLRVPVVGYSLLLTAMAYGATRLGPVAGLGGALFLLSDTLIATGVADWPQLPRPDFWIMLTYAAGQYLLVRGVTDTLGAPTAPAAAYGEVRSTTP | failed |
| MRPAPSIVEVVAAIIIGSDGSFLLARRPEGKPYAGYWEFPGGKVNPEESLLRALKRELLEELGIHVKHAYPWITRTFTYPHARVRLHFYRVVEWHGEPHPHEDQELSWQFADNVSVEPLLPANAPVLRALALPPVYGITNAAEWGPQIAAARIGHALQKGLRLVQLREKGMRSKALDAFAREVTALAHHYGARILVNSGTGNESLCQELDMDGIHFTSADLMNLSKRPDVEWCAASCHNAEELFRAEQLEMDFAVLAPVLPTLSHPDSPVLGWRKLARIIHGSAIPVYALGGLQSEDLAIAWEHGAHGIALMRRIEQVRGTGQKA | failed |
| MRPKVSVALATYNGEKYIEEQLESIIKQTRAPDELVICDDCSNDETINIITKKIKNAHFDVKLVSNDKNIGYVQNFSKALEMSSGDIVFLCDQDDVWLSDKIEFIINKFNTRPDIQLLIHDVDYCKEDLTPIGQTKLQRMESNFDIESDYVVGMATAVRRSFLVHCLPVPSAPEVTHDEWLHDCARVLGCKGIVREVLALYRRHSLNVTAPSRLNVDFVTTRHYFGNESLAFLKLFRMETDLGSPDISPLVQWLDSRKMVLLDNGFSSEDRINTFIQYEEKRLRARNSRQSILRLDRWKRLFPIYDLYRSGGYHYYCGWKSALKDLLRTYALEHHHHHH | not failed |
| MRPLAAILALPILEIALFVTIGGAIGLLATLLIIFGTAALGVFLLRRQGVEMQAALQMPRRMDPLALMADGAAVSLAAALLILPGFFTDTVGLLLLIPPVRRALIRRLGRNVQVRSTTWRGPVRDDAPIEADYHEVEPVRDPLAPPSQPPGSSGWTRH | failed |
| MRPPLIERYRNLLPVSEKTPVISLLEGSTPLIPLKGPEEARKKGIRLYAKYEGLNPTGSFKDRGMTLAVSKAVEGGAQAVACASTGNTAASAAAYAARAGILAIVVLPAGYVALGKVAQSLVHGARIVQVEGNFDDALRLTQKLTEAFPVALVNSVNPHRLEGQKTLAFEVVDELGDAPHYHALPVGNAGNITAHWMGYKAYHALGKAKRLPRMLGFQAAGAAPLVLGRPVERPETLATAIRIGNPASWQGAVRAKEESGGVIEAVTDEEILFAYRYLAREEGIFCEPASAAAMAGVFKLLREGRLEPESTVVLTLTGHGLKDPATAERVAELPPPVPARLEAVAAAAGLL | not failed |
